From US20230035659A1, “Compositions and Methods for TTR Gene Editing and Treating ATTR Amyloidosis Comprising a Corticosteroid or Use Thereof” (Intellia Therapeutics, Inc., priority 2019, published 2023)
Strand notation (5' to 3'): a small letter for the sugar, then the base; units joined by * are phosphorothioate-linked, units joined directly phosphodiester-linked; [ ] holds rarer units or linkages, { } end groups; capitals alone tell only the bases. m = 2'-O-methyl; r = 2'-OH (RNA)

B1: G000501: TTR sgRNA modified sequence, Human, SEQ ID NO: 108; guide sequence of CR005300 (nucleic acid)
guide: mU*mC*mA*rCrArGrArArArCrArCrUrCrArCrCrGrUrArGrUrUrUrUrArGrAmGmCmUmAmGmAmAmAmUmAmGmCrArArGrUrUrArArArArUrArArGrGrCrUrArGrUrCrCrGrUrUrArUrCrAmAmCmUmUmGmAmAmAmAmAmGmUmGmGmCmAmCmCmGmAmGmUmCmGmGmUmGmCmU*mU*mU*mU
B2: G000491: TTR sgRNA modified sequence, Human, SEQ ID NO: 98; guide sequence of CR003338 (nucleic acid)
guide: mA*mU*mA*rCrCrArGrUrCrCrArGrCrArArGrGrCrArGrGrUrUrUrUrArGrAmGmCmUmAmGmAmAmAmUmAmGmCrArArGrUrUrArArArArUrArArGrGrCrUrArGrUrCrCrGrUrUrArUrCrAmAmCmUmUmGmAmAmAmAmAmGmUmGmGmCmAmCmCmGmAmGmUmCmGmGmUmGmCmU*mU*mU*mU
B3: G000504: TTR Cyno specific sgRNA modified sequence, SEQ ID NO: 116; guide sequence of CR005364 (nucleic acid)
guide: mA*mA*mA*rGrGrCrUrGrCrUrGrArUrGrArGrArCrCrUrGrUrUrUrUrArGrAmGmCmUmAmGmAmAmAmUmAmGmCrArArGrUrUrArArArArUrArArGrGrCrUrArGrUrCrCrGrUrUrArUrCrAmAmCmUmUmGmAmAmAmAmAmGmUmGmGmCmAmCmCmGmAmGmUmCmGmGmUmGmCmU*mU*mU*mU
B4: G000487: TTR sgRNA modified sequence, Human, SEQ ID NO: 94; guide sequence of CR003357 (nucleic acid)
guide: mU*mU*mC*rUrUrUrGrGrCrArArCrUrUrArCrCrCrArGrGrUrUrUrUrArGrAmGmCmUmAmGmAmAmAmUmAmGmCrArArGrUrUrArArArArUrArArGrGrCrUrArGrUrCrCrGrUrUrArUrCrAmAmCmUmUmGmAmAmAmAmAmGmUmGmGmCmAmCmCmGmAmGmUmCmGmGmUmGmCmU*mU*mU*mU
B5: G000495: TTR sgRNA modified sequence, Human, SEQ ID NO: 102; guide sequence of CR003343 (nucleic acid)
guide: mC*mA*mG*rArGrGrArCrArCrUrUrGrGrArUrUrCrArCrGrUrUrUrUrArGrAmGmCmUmAmGmAmAmAmUmAmGmCrArArGrUrUrArArArArUrArArGrGrCrUrArGrUrCrCrGrUrUrArUrCrAmAmCmUmUmGmAmAmAmAmAmGmUmGmGmCmAmCmCmGmAmGmUmCmGmGmUmGmCmU*mU*mU*mU
B6: G000492: TTR sgRNA modified sequence, Human, SEQ ID NO: 99; guide sequence of CR003342 (nucleic acid)
guide: mC*mU*mU*rCrUrCrUrArCrArCrCrCrArGrGrGrCrArCrGrUrUrUrUrArGrAmGmCmUmAmGmAmAmAmUmAmGmCrArArGrUrUrArArArArUrArArGrGrCrUrArGrUrCrCrGrUrUrArUrCrAmAmCmUmUmGmAmAmAmAmAmGmUmGmGmCmAmCmCmGmAmGmUmCmGmGmUmGmCmU*mU*mU*mU
B7: G000503: TTR Cyno specific sgRNA modified sequence, SEQ ID NO: 115; guide sequence of CR005372 (nucleic acid)
guide: mA*mA*mA*rArGrGrCrUrGrCrUrGrArUrGrArGrArCrCrGrUrUrUrUrArGrAmGmCmUmAmGmAmAmAmUmAmGmCrArArGrUrUrArArArArUrArArGrGrCrUrArGrUrCrCrGrUrUrArUrCrAmAmCmUmUmGmAmAmAmAmAmGmUmGmGmCmAmCmCmGmAmGmUmCmGmGmUmGmCmU*mU*mU*mU
B8: G000498: TTR sgRNA modified sequence, Human, SEQ ID NO: 105; guide sequence of CR003359 (nucleic acid)
guide: mA*mG*mU*rGrArGrUrCrUrGrGrArGrArGrCrUrGrCrArGrUrUrUrUrArGrAmGmCmUmAmGmAmAmAmUmAmGmCrArArGrUrUrArArArArUrArArGrGrCrUrArGrUrCrCrGrUrUrArUrCrAmAmCmUmUmGmAmAmAmAmAmGmUmGmGmCmAmCmCmGmAmGmUmCmGmGmUmGmCmU*mU*mU*mU
B9: G000497: TTR sgRNA modified sequence, Human, SEQ ID NO: 104; guide sequence of CR003335 (nucleic acid)
guide: mC*mU*mG*rCrUrCrCrUrCrCrUrCrUrGrCrCrUrUrGrCrGrUrUrUrUrArGrAmGmCmUmAmGmAmAmAmUmAmGmCrArArGrUrUrArArArArUrArArGrGrCrUrArGrUrCrCrGrUrUrArUrCrAmAmCmUmUmGmAmAmAmAmAmGmUmGmGmCmAmCmCmGmAmGmUmCmGmGmUmGmCmU*mU*mU*mU
B10: G000496: TTR sgRNA modified sequence, Human, SEQ ID NO: 103; guide sequence of CR005304 (nucleic acid)
guide: mG*mG*mC*rCrGrUrGrCrArUrGrUrGrUrUrCrArGrArArGrUrUrUrUrArGrAmGmCmUmAmGmAmAmAmUmAmGmCrArArGrUrUrArArArArUrArArGrGrCrUrArGrUrCrCrGrUrUrArUrCrAmAmCmUmUmGmAmAmAmAmAmGmUmGmGmCmAmCmCmGmAmGmUmCmGmGmUmGmCmU*mU*mU*mU
B11: G000485: TTR sgRNA modified sequence, Human, SEQ ID NO: 92; guide sequence of CR003336 (nucleic acid)
guide: mC*mC*mU*rCrCrUrCrUrGrCrCrUrUrGrCrUrGrGrArCrGrUrUrUrUrArGrAmGmCmUmAmGmAmAmAmUmAmGmCrArArGrUrUrArArArArUrArArGrGrCrUrArGrUrCrCrGrUrUrArUrCrAmAmCmUmUmGmAmAmAmAmAmGmUmGmGmCmAmCmCmGmAmGmUmCmGmGmUmGmCmU*mU*mU*mU

Tests used:
[1] = test system: potential off-target genomic sites; experiment: Off-target analysis by oligo insertion based assay in primary human hepatocytes (sgRNAs); format: cell-based; details: 100 ng Cas9 mRNA, 25 nM sgRNA, 12.5 nM donor oligo, 48 h
Procedure: Off-target analysis of sgRNAs targeting TTR was performed in primary human hepatocytes (PHH) as described in Example 5, with the following modifications. PHH were plated at a density of 33,000 cells per well on collagen-coated 96-well plates as described in Example 1. Twenty-four hours post plating, cells were washed with media and transfected using Lipofectamine RNAiMAX (ThermoFisher, Cat. 13778150) as described in Example 1. Cells were transfected with a lipoplex containing 100 ng Cas9 mRNA, immediately followed by the addition of another lipoplex containing 25 nM of the sgRNA and 12.5 nM of the donor oligo (0.3 μL/well). Cells were lysed 48 hours post-transfection and gDNA was extracted and analyzed as further described in Example 5. The data is graphically represented in FIG. 20.
Fewer sites were detected in PHH for every guide tested as compared to the HekCas9 cell line, with no unique sites detected in PHH alone.

TTR [2] = experiment: TTR editing in primary human hepatocytes treated with LNP formulated Spy Cas9 mRNA (SEQ ID NO: 2) and sgRNAs, 12.5 ng mRNA; format: cell-based; details: LNP formulated Spy Cas9 mRNA (SEQ ID NO: 2) and sgRNA, 12.5 ng mRNA, 3.9 nM sgRNA, 72 hours
Procedure: (§1) Primary liver hepatocytes. Primary human liver hepatocytes (PHH) and primary cynomolgus liver hepatocytes (PCH) (Gibco) were cultured per the manufacturer's protocol (Invitrogen, protocol 11.28.2012). In brief, the cells were thawed and resuspended in hepatocyte thawing medium with supplements (Gibco, Cat. CM7000) followed by centrifugation at 100 g for 10 minutes for human and 80 g for 4 minutes for cyno. The supernatant was discarded and the pelleted cells resuspended in hepatocyte plating medium plus supplement pack (Invitrogen, Cat. A1217601 and CM3000). Cells were counted and plated on Bio-coat collagen I coated 96-well plates (ThermoFisher, Cat. 877272) at a density of 33,000 cells/well for human or 60,000 cells/well for cyno (or 65,000 cells/well when assaying effects on TTR protein, described further below). Plated cells were allowed to settle and adhere for 6 or 24 hours in a tissue culture incubator at 37° C. and 5% CO2 atmosphere. After incubation cells were checked for monolayer formation and media was replaced with hepatocyte culture medium with serum-free supplement pack (Invitrogen, Cat. A1217601 and CM4000).
In general, the lipid nanoparticle components were dissolved in 100% ethanol with the lipid component of various molar ratios. The RNA cargos were dissolved in 25 mM citrate, 100 mM NaCl, pH 5.0, resulting in a concentration of RNA cargo of approximately 0.45 mg/mL. The LNPs were formulated with a lipid amine to RNA phosphate (N:P) molar ratio of about 4.5 or about 6, with the ratio of mRNA to gRNA at 1:1 by weight.
The LNPs were formed by microfluidic mixing of the lipid and RNA solutions using a Precision Nanosystems NanoAssemblr™ Benchtop Instrument, according to the manufacturer's protocol. A 2:1 ratio of aqueous to organic solvent was maintained during mixing using differential flow rates. After mixing, the LNPs were collected, diluted in water (approximately 1:1 v/v), held for 1 hour at room temperature, and further diluted with water (approximately 1:1 v/v) before final buffer exchange. The final buffer exchange into 50 mM Tris, 45 mM NaCl, 5% (w/v) sucrose, pH 7.5 (TSS) was completed with PD-10 desalting columns (GE). If required, formulations were concentrated by centrifugation with Amicon 100 kDa centrifugal filters (Millipore). The resulting mixture was then filtered using a 0.2 μm sterile filter. The final LNP was stored at −80° C. until further use.
(§2) Additional PCR was performed per the manufacturer's protocols (Illumina) to add chemistry for sequencing. The amplicons were sequenced on an Illumina MiSeq instrument. The reads were aligned to a reference genome (e.g., the human reference genome (hg38), the cynomologus reference genome (mf5), the rat reference genome (rn6), or the mouse reference genome (mm10)) after eliminating those having low quality scores. The resulting files containing the reads were mapped to the reference genome (BAM files), where reads that overlapped the target region of interest were selected and the number of wild type reads versus the number of reads which contain an insertion, substitution, or deletion was calculated.
(§3) The editing percentage (e.g., the “editing efficiency” or “percent editing” or “indel frequency”) is defined as the total number of sequence reads with insertions/deletions (“indels”) or substitutions over the total number of sequence reads, including wild type.
Lipid nanoparticle formulations of modified sgRNAs targeting human TTR and the cyno matched sgRNA sequences were tested on primary human hepatocytes and primary cyno hepatocytes in a dose response curve. Primary human and cyno hepatocytes were plated as described in Example 1. Both cell lines were incubated at 37° C., 5% CO2 for 24 hours prior to treatment with LNPs. The LNPs used in the experiments detailed in Tables 18-21 were prepared using the Nanoassemblr™ procedure, each containing the specified sgRNA and Cas9 mRNA (SEQ ID NO:2), each having Lipid. […]

TTR [3] = experiment: TTR editing dose response (EC50, maximum editing) in primary cyno hepatocytes treated with LNP formulated U-depleted Spy Cas9 mRNA and sgRNAs; format: cell-based, cynomolgus monkey
Procedure: as §1
(§4) For LNPs prepared using the cross-flow technique, the LNPs were formed by impinging jet mixing of the lipid in ethanol with two volumes of RNA solutions and one volume of water. The lipid in ethanol is mixed through a mixing cross with the two volumes of RNA solution. A fourth stream of water is mixed with the outlet stream of the cross through an inline tee. (See WO2016010840 FIG. 2.) The LNPs were held for 1 hour at room temperature, and further diluted with water (approximately 1:1 v/v). Diluted LNPs were concentrated using tangential flow filtration on a flat sheet cartridge (Sartorius, 100 kD MWCO) and then buffer exchanged by diafiltration into 50 mM Tris, 45 mM NaCl, 5% (w/v) sucrose, pH 7.5 (TSS). Alternatively, the final buffer exchange into TSS was completed with PD-10 desalting columns (GE). If required, formulations were concentrated by centrifugation with Amicon 100 kDa centrifugal filters (Millipore). The resulting mixture was then filtered using a 0.2 μm sterile filter. The final LNP was stored at 4° C. or −80° C. until further use.
as §2, §3
(§5) Lipid nanoparticle formulations of modified sgRNAs targeting human TTR and the cyno matched sgRNA sequences were tested on primary human hepatocytes and primary cyno hepatocytes in a dose response curve. Primary human and cyno hepatocytes were plated as described in Example 1. Both cell lines were incubated at 37° C., 5% CO2 for 24 hours prior to treatment with LNPs. The LNPs used in the experiments detailed in Tables 20-22 were prepared using the cross-flow procedure described above but purified using PD-10 columns (GE Healthcare Life Sciences) and concentrated using Amicon centrifugal filter units (Millipore Sigma), each containing the specified sgRNA and Cas9 mRNA (SEQ ID NO:1). […] LNPs were incubated in hepatocyte maintenance media containing 6% cyno serum at 37° C., 5% CO2 for 5 minutes. […]

TTR [4] = experiment: TTR editing dose response (EC50, maximum editing) in primary human hepatocytes treated with LNP formulated U-depleted Spy Cas9 mRNA and sgRNAs; format: cell-based; details: LNP with U-depleted Spy Cas9 mRNA and cyno specific sgRNA, 8 point 3-fold dose response starting at 300 ng mRNA, 72 hours
Procedure: as §1, §4, §2, §3, §5

[5] = LNP formulated U-depleted Spy Cas9 mRNA and cyno specific sgRNAs

Row | Molecule | # Sites in PHH (off-target integration sites detected) [1] | 12.5 ng mRNA, 3.9 nM sgRNA, Avg % Edit (TTR [2]) | Max Editing (TTR [3]; [5]) | Max Editing (TTR [3]; LNP formulated U-depleted Spy Cas9 mRNA and human specific sgRNAs) | Max Editing (TTR [4])
1 | B1 | 0 | 32.30% | – | – | –
2 | B2 | 7 | 31.60% | – | – | –
3 | B3 | – | – | 98.04% | 7.16% | 7.16%
4 | B4 | 0 | 17.37% | – | – | –
5 | B5 | 1 | 23.97% | – | – | –
6 | B6 | 5 | 15.87% | – | – | –
7 | B7 | – | – | 83.41% | – | –
8 | B8 | 19 | 24.43% | – | – | –
9 | B9 | 3 | 15.10% | – | – | –
10 | B10 | 0 | 30.73% | – | – | –
11 | B11 | 3 | 14.23% | – | – | –
